Measurements as given in patent US20050214219A1, “24p3 receptors and uses thereof” (priority 2003, published 2005).
Where a name gives a salt, the structure may show the parent alone.

Experiments:
[1] = test system: HIFIα and Nip3; assay: expression of HIFIα and Nip3 (response to decreased intracellular iron); format: cell-based
Experimental: It is well established that iron chelators can induce apoptosis. […] To examine this possibility, the expression of two genes, HIFIα and Nip3, was analyzed. The two genes are unregulated in response to decreased intracellular iron concentration. As a control, cells were treated with the bacterial siderophore desferrioxamine (DFO), an iron chelator, and analyzed in parallel.

[2] = test system: calcein-loaded HeLa cells; assay: intracellular iron in living cells with iron-sensing dye calcein; format: cell-based; details: for calcein fluorescence (inverse to intracellular iron level): calcein-loaded HeLa cells expressing 24p3 receptor, FIG. 3
Experimental: In this particular example, intracellular iron levels were measured in living cells using the iron-sensing dye calcein. Calcein is a fluorescent, cell permeable dye. Because its fluorescence is quenched upon iron binding, calcein can be used to measure free (also called labile or chelatable) iron in living cells.

[3] = test system: HeLa/24p3R-L, HeLa/24p3R-S, or HeLa/X7 cells; assay: intracellular iron monitored by expression of iron-regulated genes ferritin and transferrin receptor 1; format: cell-based
Experimental: Experiments were performed to determine whether 24p3R expression would confer on cells the ability to deliver iron in a 24p3-dependent fashion. In these experiments, as well as those described below, three preparations of 24p3 were used: bacterially derived iron-loaded 24p3 (holo-24p3), bacterially derived iron-lacking 24p3 (apo-24p3), and conditioned medium (CM) from cytokine-deprived FL5.12 cells, which contains 24p3 (FL5.12-24p3). The three preparations of 24p3 were added to HeLa/24p3R-L, HeLa/24p3R-S, or HeLa/X7 cells, and, as a control, iron-containing transferrin (holo-transferrin) was added in parallel samples. To monitor intracellular iron concentration, the expression of two iron-regulated genes, ferritin and transferrin receptor 1 were examined.

[4] = test system: 24p3-mediated apoptosis; assay: ability of holo-transferrin to block 24p3-mediated apoptosis; format: cell-based
Source text: If the basis of 24p3-mediated apoptosis is in fact decreased intracellular iron concentration, then apoptosis should be prevented by iron delivery. To test this prediction, the ability of holo-transferrin to block 24p3-mediated apoptosis was examined.

[5] = test system: 24p3R; assay: ligand-cell binding of 32P-labeled 24p3 to HeLa cells ectopically expressing 24p3R; design: species or system murine
Source text: HeLa cells expressed only low levels of 24p3R. To perform functional experiments HeLa cell lines were derived that stably express recombinant N-terminal epitope-tagged derivatives of 24p3R-L and 24p3R-S (HeLa/24p3R-L and HeLa/24p3R-S) and, as a control, the empty expression vector (HeLa/X7). Immunoblot analysis confirmed expression of 24p3R in HeLa/24p3R-L and HeLa/24p3R-S cells.
To determine whether the ectopically expressed 24p3R was able to bind 24p3, a series of ligand-cell binding experiments were performed. […] Binding of ^32P-labeled 24p3 to HeLa/24p3R-L and HeLa/24p3R-S was saturable and blocked by the addition of an excess of unlabeled 24p3. […] Thus, ectopically expressed 24p3R can bind to 24p3.

[6] = test system: 24p3R; assay: Internalization assay of 32P-24p3; format: cell-based, murine
Experimental: HeLa cells constitutively expressing 24p3R were treated with ^32P-24p3 and at various time points cells were washed three times with PBS and incubated for 15 minutes in proteinase K, trypsin, and EDTA solution to remove the extracellular portion of the receptor. The dislodged cells were then collected and counted.
24p3 and other lipocalins are internalized following binding to their cell surface receptor. […] Thus, cells ectopically expressing 24p3R can be used as reagents for examining the function of 24p3 and 24p3R as well as in assays to identify compounds that affect expression or activity of a 24p3R or a 24p3 (e.g., 24p3 or NGAL).

[7] = test system: 32D cells or 32D/BCR-ABL^p190 cells; assay: cellular ligand-uptake of fluorescently derivatized 24p3 by fluorescence microscopy; format: cell-based, mouse
Experimental: A cellular ligand-uptake experiment was performed in which 24p3 was fluorescently derivatized, added to 32D cells or 32D/BCR-ABL^p190 cells, and 24p3 internalization analyzed by fluorescence microscopy.

[8] = test system: HeLa/24p3R-L, HeLa/24p3R-S, or HeLa/X7 cells; assay: 24p3-dependent apoptosis by annexin V-FITC staining; format: cell-based; details: for apoptosis (annexin V-FITC staining; confirmed by PARP and caspase 3 cleavage): HeLa/24p3R-L and HeLa/24p3R-S cells
Experimental: To examine the ability of 24p3R to mediate 24p3-dependent apoptosis, different preparations of 24p3 were added to the three HeLa cell lines described above and apoptosis was analyzed by annexin V-FITC staining. […] Apoptosis was confirmed by analyzing proteolytic cleavage of PARP (poly(ADP-ribose)polymerase) and caspase 3.

[9] = test system: HeLa/24p3R-L, HeLa/24p3R-S, or HeLa/X7 cells; assay: colorimetric determination of intracellular free (non-haem) iron concentration; format: cell-based
Experimental: Colorimetric determination of intracellular non-haem iron concentration was measured as described by Leardi et al., (1998, Br. J. Haematol., 102:746-752) with modifications. Briefly, cells were washed twice with ice-cold PBS and then lysed with lysis buffer (1% TRITON™-X100, 10% glycerol. 25 mM HEPES, pH 7.4, in PBS) and incubated with 0.3 N HCl. The proteins in the lysates were precipitated with 10% TCA (trichloroacetic acid) and centrifuged at 1200×g for 15 minutes. The lysates were then mixed with iron chromogen, FERROZINE® (Sigma) in iron buffer reagent (1.5% hydroxylamine HCl in acetate buffer, pH 4.5) and the absorbance was measured spectrophotometrically at 560 nm. The non-heme iron concentration was measured by interpolating the absorbance of each sample using preset iron standards (Sigma) and expressed as mg/dL.
To confirm the results disclosed above, a […] assay that directly measures free iron concentration was employed.

[10] = HeLa/24p3R-L and HeLa/24p3R-S cells

24p3R, sequence (as listed by the source): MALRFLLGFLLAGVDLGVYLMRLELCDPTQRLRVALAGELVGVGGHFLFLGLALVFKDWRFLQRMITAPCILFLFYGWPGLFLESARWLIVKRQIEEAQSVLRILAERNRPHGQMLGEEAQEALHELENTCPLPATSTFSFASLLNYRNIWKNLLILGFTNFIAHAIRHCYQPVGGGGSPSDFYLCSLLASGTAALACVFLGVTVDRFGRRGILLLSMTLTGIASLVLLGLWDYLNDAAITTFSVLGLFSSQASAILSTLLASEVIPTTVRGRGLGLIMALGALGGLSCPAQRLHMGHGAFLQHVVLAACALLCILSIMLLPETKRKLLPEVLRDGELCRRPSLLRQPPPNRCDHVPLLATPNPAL

## CC(=O)N(O)CCCCCNC(=O)CCC(=O)N(O)CCCCCNC(=O)CCC(=O)N(O)CCCCCN [DFO, deferoxamine mesylate, reference compound]
[1]; all three HeLa cell lines
  expression of HIFIα and Nip3: induced expression of HIFIα and Nip3
[2]
  calcein fluorescence (inverse to intracellular iron level): large increase in fluorescence emission
[2]; control HeLa cells (HeLa/X7)
  intracellular iron levels (calcein): altered iron levels

## holo-transferrin: iron-containing transferrin, used as control [reference compound]
[3]; all three HeLa cell lines
  intracellular iron concentration (ferritin / transferrin receptor 1 expression): increased iron concentration
  levels of ferritin: increased levels of ferritin
  levels of transferrin receptor 1: decreased levels of transferrin receptor 1
[4]
  effect on apoptosis by 24p3: blocked apoptosis by 24p3
[4]; apoptosis induced by etoposide or staurosporine
  effect on apoptosis induced by other agents: had no effect

B1: 24p3: recombinant mouse lipocalin 24p3, ligand of 24p3R; used 32P-labeled or fluorescently derivatized (protein)
chain: QDSTQNLIPAPSLLTVPLQPDFRSDQFRGRWYVVGLAGNAVQKKTEGSFTMYSTIYELQENNSYNVTSILVRDQDQGCRYWIRTFVPSSRAGQFTLGNMHRYPQVQSYNVQVATTDYNQFAMVFFRKTSENKQYFKITLYGRTKELSPELKERFTRFAKSLGLKDDNIIFSVPTDQCIDN
[5]; [10]
  binding of 32P-labeled 24p3 to cells: bound to HeLa/24p3R-L and HeLa/24p3R-S cells
[5]; HeLa/X7 cells (empty vector control)
  binding of 32P-labeled 24p3 to cells: not to HeLa/X7 cells
[6]; [10]
  internalization of 32P-labeled 24p3: internalized by HeLa/24p3R-L and HeLa/24p3R-S cells
[6]; HeLa/X7 cells
  internalization of 32P-labeled 24p3: not by HeLa/X7 cells
[7]; 32D cells
  internalization of fluorescently labeled 24p3: internalized
[7]; 32D/BCR-ABL^p190 cells
  internalization of fluorescently labeled 24p3: not 32D/BCR-ABL^p190 cells

B2: holo-24p3: bacterially derived iron-loaded 24p3 (protein)
chain: QDSTQNLIPAPSLLTVPLQPDFRSDQFRGRWYVVGLAGNAVQKKTEGSFTMYSTIYELQENNSYNVTSILVRDQDQGCRYWIRTFVPSSRAGQFTLGNMHRYPQVQSYNVQVATTDYNQFAMVFFRKTSENKQYFKITLYGRTKELSPELKERFTRFAKSLGLKDDNIIFSVPTDQCIDN
[3]; [10]
  intracellular iron concentration (ferritin / transferrin receptor 1 expression): increased intracellular iron concentration
[3]; HeLa/X7 cells
  intracellular iron concentration (ferritin / transferrin receptor 1 expression): not in HeLa/X7 cells
[8]
  apoptosis (annexin V-FITC staining; confirmed by PARP and caspase 3 cleavage): failed to induce apoptosis
[9]; [10]
  free iron concentration (colorimetric assay): increased intracellular iron
[9]; HeLa/X7 cells
  free iron concentration (colorimetric assay): not in HeLa/X7 cells
[2]
  calcein fluorescence (inverse to intracellular iron level): decrease in fluorescence intensity

B3: apo-24p3: bacterially derived iron-lacking 24p3 (protein)
chain: QDSTQNLIPAPSLLTVPLQPDFRSDQFRGRWYVVGLAGNAVQKKTEGSFTMYSTIYELQENNSYNVTSILVRDQDQGCRYWIRTFVPSSRAGQFTLGNMHRYPQVQSYNVQVATTDYNQFAMVFFRKTSENKQYFKITLYGRTKELSPELKERFTRFAKSLGLKDDNIIFSVPTDQCIDN
[3]; all three HeLa cell lines
  intracellular iron concentration (ferritin / transferrin receptor 1 expression): did not increase intracellular iron
[8]
  apoptosis (annexin V-FITC staining; confirmed by PARP and caspase 3 cleavage): induced apoptosis
[8]; HeLa/X7 cells
  apoptosis (annexin V-FITC staining): not in HeLa/X7 cells
[1]; HeLa/24p3R-S cells
  HIFIα levels and Nip3 transcription: increased HIFα levels and Nip3 transcription
[9]; [10]
  free iron concentration (colorimetric assay): substantially reduced free iron concentration
[2]
  calcein fluorescence (inverse to intracellular iron level): large increase in fluorescence emission
